assay: soluble on expression in E. coli; label from the status in PepcDB or PDB records

| Sequence | soluble on expression in E. coli |
| --- | --- |
| MAHHHHHHMAERKVLNKYIPPDFDPDKLMESKKLLKKIEKRKNRNQNKTKKKLMNIRMMYPFTLKCNKCKTFTYVGTKFNSRVEKLKDETYLNIPIWKFYGKCQECKNEIIFKTDPKNGDYLLIAGGTRTYDAHKEQELADDYYRNSNVKDEDKIKNTEKQSYNAMLELKMNEQLEELQNMNKRHLDKFSSINKALNRLYEKSELENKENNFFMNNLDSEDEKAFFSLLNKSRSSKDHIGDNLNKYNPSNNNWVNKNIEKDNIIIEEVELDDNKNNNDEVNEYISEGEGEHSDGNNINEVNESFSDLLLKKKKNRYEKENTVKIKQGNIDTEDKPKDNQQDKTNNISFKNTISNNSSSFSNIIHKPMFNKINKETNFNFVIKKKENFQSLLSEYNSDNSNESDN | not soluble |
| MAEITEKVLKKPNAIPDVFERKGGSAPTATHYCAGCGHGIIHKLMAEAIDELEIQDRCVLISPVGCAVFAYYYFDCGNIQVAHGRAPAVGTGVSRAEDNAIVMSYQGDGDLASIGLNETIQAANRGEKMAVFFVNNTVYGMTGGQMAPTTLIGEKTVTCQTGRDPRFAGYPIHMCELLSSLKAPVFIERVSVSDIAHIRKAKRAIKKALEIQRDGKGYAFVEILSPCPTNLRQDANAAQKFINEEMEKEFPLQNFRDRSAEVETLNRGESDFSKECLDNIFEVNSKGAEDPSEDLSFE | not soluble |
| MSDATYADAVIMEMNGRDIEIVSIKPQTTTGRKPVKTMNRNGRVNGYCDGVTEHKLSVTAAIPIDGTEIDWDNITKAKITIYPINDEDRRTSYLDCFTVDTGEQYEVDNEARIDIEMIALHKIKE | not soluble |
| MGSDKIHHHHHHMTKAKYQQIEEILRRQITNGHYQEGDLIPKEFDLAEKYQVSRPTIRHAVQDLVNQGYLERRKHVGTIVKQTKIGQEFTHVLQSYNSEMSQKGLIAQTQVLFFKKEKASAEVAKALDLTENAPVYKLTRLRSADGNPIVLVTTYLPASKLSDFEKIDFTQQSLYQELEKRSLPIVHVKRKLEVKSADEMTANLLNIEEKVPIFYFHTYGYTKGEVPLEYSIAMYRGDENYFVIDLKR | not soluble |
| MDILVREVDVSEYVSIVVNRDSFNTIEYFICAPFSGQRLRGTARPGQTVVFRQQNLTNVVEKLGKNSFRCIVKADELPKSFQKSQEFVVARGRFQQFLKVAEGSRLSKLEPMSDTEMASNAIKDVREMAEQDLIGSRKTPFYEMFTRFAQQKVTSSDQEDTIENLHTRNNYEDIFDVLKSNLNKNEQLNDIDGRNNQKSDKMTEVDQTDKMHLTELEVKQKV | not soluble |
| MGRVDGLDKFKGLFDALEPKSEGQRELKEALLSDVDLVGVFGPTGTGKSLFSIVYGVSMTAEGRFRRVVLARPVIDVVTGRELTVMTDAQSYRRLAAEYLMDILSGFLGEERVREILSSDSLVLVDPHFLRGRTFDNSVIIVDDSQSMPPEAIVEIITRLGTGSKLIVIGDPVFQRTSEPGLDGASMAREILSNEPTAEVVDLGLKDIVRPGAKRGVKMLMELLMRRRTLNQAEKEVIEAARMHSPDADIITAVDLQDAKRKWGIESDHVPDVLVVVKEGHLGRFIGRGGERIEKIEGETGLRIRAIEHTLDLKEIVRAIHPVSWIHKHVIDFDFAGPQLKIKVSKEHMGPMLGQKGAHIRFLDEIVRKLLGVGVFVEEVEERRGRRRRR | not soluble |
| MGSDKIHHHHHHMEKVLEIRDLKVYFDLTEGTVKAVDGVSFDIRRGEILGLVGESGCGKSVTAQSILRILPKSARIVNGEIVFHRNGKTLDLTRLDPEGEEIRDIRGKDISMIFQEPMASFSPVYTVGAQMIEAILLHENVSKEEARKRVVEMLKKVKIPNAEKVVDMYPFELSGGMLQRCMIAMAMSLNPTLLLADEPTTALDVTIQAQILYLMKELQKEYHSSILLITHDMGVVAQMADRVAVMYLGNIVETAEVFELFKNPLHPYTQALLRSIPKIGIRKTRLETIKGMVPDPYNLPTGCRFHNRCEKFMKGLCDVKEPPEVEVKPGHKVKCFLYGGEKE | not soluble |
| MAENKTINKEQNRTENNEIVIMNFSGIYKEQQFYRNHAEMQEDISWLEVQDLPGSNCYCDEEAKNRILDDIKNYTGNGIHFIDSGNYHYVSRLWLSKMEHPFRLLVFDNHTDMQLPAFGGLLSCGGWIAASLEEVPMLQEVILVGPDEEAYMQVEPEFQQKVQFLSREKLLAMTGEEKNTFFRNLRADLPMYISVDKDVLCTADASTTWSQGDMSLEKLQKFLEIVLQQQQILGMDICGECDPDACERNLLNDRANQKLLELWKKYFPQIRERRQDI | not soluble |
| MTITALTVTLPLLWRRLTTAGVKYADQGHFVGSAGVPAADAGGRDAASEQIARWTQTCTVVLVCGHGPAKWAFRSWCTSRSCDTLPVALRYRLQSNPLVGKLTTKYFLPLGTRQVGDHVVFFNFGYEEDPPMALPLSESDEPNRYCIQLYHQTASQVDLTGKEVLEVSCGAGGGASYIARNLGPASYTGLDLNPASIDLCRAKHRLPGLQFVQGDAQNLPFPDESFDAVVNVEASHQYPDFRGFLAEVARVLRPGGHFLYTDSRRNPVVAEWEAALADAPLRTISQRDIGAQAKRGLDANTARSQEAIGRRAPVLLAGLTRCAVRVLDWDLRRGGGFSYRIYLFAKD | not soluble |
| MAHHHHHHMQLSRYSPPPSSSSSSLLSTVMQAKDVVTRLGPSERFPGLCGVFLTKPIKKFHPIEVLPTAASAAATTTTAATADSSAERPDASRSPTSAIVSQAPPFVLNLAFAPRHSISLRRFLALRHMFSTSAYLHVATEDGWYLVAPSSAAPLCPDVTGLQAWCCRHHHRYLKHAATAVTAATSSSTPSSRAPRCSTHTGIAKLEAALDNGEELSEEQLQRLAAQEKAFFAHTPENEEADIDDDTDETDDMPAVREPRHPLSQKTAAPTAETLRKRSAGAPASAFGLSPPLIPEAHLFDINDGVAWLLPPSDDLANHEYWKSHRQRMALYESTGDADAAEQREALLATLRADPAIAQHLSSEQELYAAAEALFQALKHKANVTLNVDADTGLLTLVPLRDLHAGEELLLHYGREWWTGRLLFSLLLSVSDAEMPQIRWIEQLFDHAVDRSEPFPLLIVAHEQRKRPRRGCSGGAKVRKGLKNESSGDGDEQQQQSTQCASLTKPHGDSAETSSTTAMTAELPVSQRKLGRAVLYNTVTHKRATDAAVLAFAVRRSCIEPCFLSRLLAGDAAGGVEPVFYLSEPDKEVPMRVLRRVLLASLRGTTASAQRSIPHKDESASVVAGSAVADTAAAVVDQGAPPQTSTNTGGDGDDGDDAVFSV | soluble |
| MRGFLKFAILAAVLLALAYGDDEDEEASELERRRIRNCPEVTFKRMTGCVWEFGRFLKKVLFLDLEQRTLDRFRKSCLSMAECFDLIECKETGKFSRGKRIKDSCDVMNYLSKDFVPCLKRLERLDPAPTCFNKWKPFSDLNEVGPDTTPEEMEELCKNMLGKDNCMKDLVSRTCGGVMSQELVDRFEATSVFKQCDAD | not soluble |
| MGSDKIHHHHHHDEIDTLVSKSDNAITFGTYVGKQTKALDKSAFAKDDKFGVSAYYGDGTFEANFMSNETISTTDGSTWTYTNTKYWPEGNPVSFVAYYPNLTTAPTITDGATAIPFTVKNDATEQVDFMWSTVKAATKDDKNGTAINGITNTTTDATSVPFVFQHGLSKISFKAKLGEASYSGVTIKVKSIKINGVKNKGTFTIPADLTAGTWATEDAATNDYTVSETNGKEIASTTADSIGESLLMIPQDMKGKTIEIAYDLVYTNPAQTISNTKAIVLDDKSNWVMNQQYTYTLTISLETVQLTASVGQFGANIDL | not soluble |
| VGTRSKSRTRQLKQSNGCTATTSGASDRRRRARRRTAPAWLREDEWLRHHLPHPPRQLSRCLHRRRRSACHHRYSRRTPKGGLPMTSSLVPISEARAHLSRLVRESADDDVVLMNHGRPAAILISAERYESLMEELEDLRDRLSVHEREHVTMPLDKLGAELGVDIGRV | not soluble |
| MSLNTIIQKAKETHELSRDEIIALLKDDSINEELFKAADEVRKKYLGDEVHLRGLIEFTNICKRNCMYCGLRRDNKNLNRYRLSHEEIIDFAKKAVGYGYKTLVLQGGEDDYYTVERLVPIVKDLKALGVALTLSIGERPFEEYEALKKAGADRFLLRIETTDRELYEELDPGMSHENRIQCLKNLRKLGYEVGSGCLVGLPGQKIESLADDILFFKELDVDMNGIGPFIPNEDTPLKDAEGGQFELALKVMAIVRLLLPDINIPATTAMETLNKQGRVIALQCGANVVMPNVTEGEYRKLYALYPGKICTGDTPAHCRGCISGKIRGIGRIVSDGPGFRANGFKPKTEGHHHHHH | soluble |
| MAQLFFRYGAMNSGKTIEILKVAHNYEEQDKSVIILTSGLDNRDGVGYVASRIGLKREATPVFDDTNIFEIVKQTNPDAACVLIDEAQFLKKHHVLELADIVDELKIPVMTFGLKNDFRNELFEGSKYLLLYADKIEEMKTICWFCRKKAIMNLRFHDGQPVYEGEQVQIGGNEAYYPVCRHHYFYPPKLTKLEHHHHHH | soluble |
| MHDISSLTTRTKTLPPLRVGVGGPVGSGKTTLLEMVCKAMYPQFDLIAITNDIYTKEDQRLLTLSGALPPERILGVETGGCPHTAIREDASINLIAIDQMLEQFPDADIVFVESGGDNLAATFSPELSDLTLYIIDVASGEKIPRKGGPGITKSDLFIINKTDLAPYVGADLAVMEADTRRMRGDKPFVMCNLKTGDGLDQVIAFLKTEGLFRGLEHHHHHH | soluble |
| MKQTTINHSVELVGIGLHKGVPVKLVLEPLGENQGIVFYRSDLGVNLPLKPENIVDTKMATVLGKDNARISTIEHLLSAVHAYGIDNLKISVDNEEIPIMDGSALTYCMLLDEAGIKELDAPKKVMEIKQAVEIRESDKFVKIEPDSQLSLNFTIDFNHPVIAKQAHHFVFSKTAYKEQVAKARTFGFLQEVNYLRSIGLAKGGSLNNCIVLDENSILNKEGLRCEKEFVCHKILDAMGDLMVLGMPVMGKYTSFSGSHKLNSMLVKAILADAKNYEVLIAADPAKEFALQKAFALEHHHHHH | not soluble |
| MSLIMSEPPQLTTPDDKDVENRKHSSTYSISNLLLEKKESSPSGSSSEDDSASSNDDDQRSPSATSSFIFPPASSSSSSESATSPTQIMAQLMANGGAVDPGLQAYFFLLQSQLNSQSMMNRVTQENVSRALTSFNLLNNLPGALPSLSPMGRLQHSMQLSPNSLNMQKKQSRPTFTGHQIYQLERKFEQTKYLAGADRAQLAQELNMSESQVKVWFQNRRTKWRKKEAADNALVKRGASGDKSPCSLSPFLSAGI | not soluble |
| MMSILRSQCQISLDVTLSVPNVSEGIVRLLDPQTNTEIANYPIYKILFCVRGHDGTPESDCFAFTESHYNAELFRIHVFRCEIQEAVSRILYSFATAFRRSAKQTPLSATAAPQTPDSDIFTFSVSLEIKEDDGKGYFSAVPKDKDRQCFKLRQGIDKKIVIYVQQTTNKELAIERCFGLLLSPGKDVRIVTALIRFGSMGKVQMESRMLFGELESKIPTFSSCNEEPPKDKVLFMTTAVDLVITEVQEPVRFLLETKVRVCSPNERLFWPFSKRSTTENFFLKLKQIKQRERKNNTDTLYEVVCLESLEHHHHHHLEHHHHHHLEHHHHHHLEHHHHHHLEHHHHHHLEHHHHHHLEHHHHHH | not soluble |
| MIARGSRAPRCPQCRVIDSYCLCAWRPTVAAESGMCLLMYDTEPMKPTNTGWLIADVIKDTYAFGWSRVEIDAHLRALLDDPQWQPYIVFPGEFVAQERVVAEVAREDGKRPLFILLDATWNEARKMFRKSPYLEKFPVLSLAPEQISRYRLRRSKRDDHFCTAEVAALCLELAGDVSASGVLDAYLDVFSAHYLGAKFQRPIDPDDVAHTYLKAFILEHHHHHH | not soluble |

Source: the DeepSol protein solubility set
